Key:
[1] = target: T1, VEGF-165 (VEGF-A) (Homo sapiens); test: competition; VEGFR2 blocking ELISA, PBSMCT, 37 C; details: tags: R&D Systems 293-VE-050; chain copies: 2
T1 chain: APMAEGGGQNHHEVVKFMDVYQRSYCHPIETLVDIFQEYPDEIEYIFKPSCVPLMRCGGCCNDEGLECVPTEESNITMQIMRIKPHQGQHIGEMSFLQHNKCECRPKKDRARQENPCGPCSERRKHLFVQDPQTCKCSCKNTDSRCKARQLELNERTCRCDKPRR

[2] = target: VEGF-121 (VEGF-A) (Homo sapiens, UniProt P15692 SEQ:1-121); test: flow; PBSMCT, 37 C; details: tags: recombinant; chain copies: 2; label: biotin
[3] = target: T1, VEGF-165 (VEGF-A); test: flow; PBSMCT, 37 C; details: tags: recombinant; chain copies: 2; label: biotin
[4] = target: T1, VEGF-165 (VEGF-A); test: flow; details: tags: recombinant; chain copies: 2
[5] = target: Angiopoietin-2 (Ang2) (Homo sapiens, UniProt O15123 O15123:19-496); test: flow; details: tags: His tag; R&D Systems 623-AN
Chain of Angiopoietin-2 (Ang2) (O15123 19-496, one chain of several): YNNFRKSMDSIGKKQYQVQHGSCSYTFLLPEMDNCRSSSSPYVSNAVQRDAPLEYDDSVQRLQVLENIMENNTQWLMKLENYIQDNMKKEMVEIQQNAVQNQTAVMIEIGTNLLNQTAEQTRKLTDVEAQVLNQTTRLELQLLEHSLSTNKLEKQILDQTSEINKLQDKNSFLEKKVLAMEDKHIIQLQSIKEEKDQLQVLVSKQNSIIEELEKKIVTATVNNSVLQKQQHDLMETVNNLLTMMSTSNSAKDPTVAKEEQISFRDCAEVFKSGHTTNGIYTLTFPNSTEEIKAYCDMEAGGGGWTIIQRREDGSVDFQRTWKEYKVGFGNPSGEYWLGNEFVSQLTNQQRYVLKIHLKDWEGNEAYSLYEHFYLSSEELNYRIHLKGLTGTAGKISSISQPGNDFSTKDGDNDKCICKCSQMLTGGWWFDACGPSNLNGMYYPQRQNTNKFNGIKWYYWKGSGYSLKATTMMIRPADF

Binder | IC50 [1] [nM] | Kd [2] [nM] | Kd [3] [nM] | other results
ACCCUUGCUUGCGUAGCAUUUUACCAGUGAGUCGGAUCUC (ssRNA, 2'-F all) [AMS0433.0] | 27.5 |  |  | 
AMS0433.1 (ssRNA, 2'-F all nucleotides) RNA: ACCCUUGCUUGCGUAGCAUUUUACCAGUGAGUCGGAUCUCCGCAUAUCUGCG |  | 1.12 | 0.666 | 
AMS0433.1 (ssRNA, 2'-F all) RNA: ACCCUUGCUUGCGUAGCAUUUUACCAGUGAGUCGGAUCUCCGCAUAUCUGCG | 1.73 |  |  | 
AMS0433.3 (ssRNA, 2'-F all nucleotides) RNA: ACCCUUGCUUGCGUAGCAUUCUGCCAGUGAGUCGGAUCUCCGCAUAUCUGCG |  | 0.921 | 0.837 | 
AMS0433.4 (ssRNA, 2'-F all nucleotides) RNA: ACCCUUGCUUGCGCAGCAUUCUGCCAGUGAGUCGGAUCUCCGCAUAUCUGCG |  | 1.09 | 0.76 | 
AMS0433.4 (ssRNA, 2'-F all) RNA: ACCCUUGCUUGCGCAGCAUUCUGCCAGUGAGUCGGAUCUCCGCAUAUCUGCG | 1.96 |  |  | 
AMS0433.3 (ssRNA, 2'-F all) RNA: ACCCUUGCUUGCGUAGCAUUCUGCCAGUGAGUCGGAUCUCCGCAUAUCUGCG | 2.1 |  |  | 
AMS0433.5 (ssRNA, 2'-F all nucleotides) RNA: CACCAUGCUUGCGUAGCAUCAUCCAGUGAGUCGGAUCUCCGCAUAUCUGCG |  | 1.19 | 0.739 | 
CCCCAUCUGCGAAGCAGUCAGCCAGUGAGUCGGAUCUCCGCAUAUCUGCG (ssRNA, 2'-F all nucleotides) [AMS0433.6] |  | 0.898 | 0.674 | 
UGCAUCUGCAUUUUACCAGUGAGUCGGAUCUCCGCAUAUCUGCG (ssRNA, 2'-F all nucleotides) |  | 5.73 | 3.81 | 
UGCAUCUGCAUUUUACCAGUGAGUCGGAUCUCCGCAUAUCUGCG (ssRNA, 2'-F all) | 8.34 |  |  | 
UGCCAGUGAGUCGGAUCUCCGCAUAUCUGCGCGCAUAUCUGCG (ssRNA, 2'-F all nucleotides) |  | 11.4 | 8.42 | 
UGCCAGUGAGUCGGAUCUCCGCAUAUCUGCGCGCAUAUCUGCG (ssRNA, 2'-F all) | 9.26 |  |  | 
CACAGAGAACUGUGUGCCAGUGAGUCGGAUCUCCGCAUAUCUGCG (ssRNA, 2'-F all nucleotides) [AMS0433.7] |  | 13.8 | 9.76 | 
GCUGUACAGCUUUUACCAGUGAGUCGGAUCUCCGCAUAUCUGCG (ssRNA, 2'-F all nucleotides) |  | 0.15 | 0.131 | 
GCUGUACAGCUUUUACCAGUGAGUCGGAUCUCCGCAUAUCUGCG (ssRNA, 2'-F all) | 0.064 |  |  | 
UGCCAGUGAGUCGGAUCUCCUGUGAGAACACAG (ssRNA, 2'-F all nucleotides) |  | 11.4 | 8.47 | 
UGCCAGUGAGUCGGAUCUCCUGUGAGAACACAG (ssRNA, 2'-F all) | 27.2 |  |  | 
AMSB107.13 (ssRNA, 2'-F all nucleotides) RNA: CCGGUACCGGUUUUACCAGUGAGUCGGAUCUCCGCAUAGAUAAGCCAACAAACGUACAUUCUCUGUUAGUAUUUUCUGCG |  |  |  | Kd [4]: 0.05 nM; Kd [5]: 0.089 nM
AMSB107.15 (ssRNA, 2'-F all nucleotides) RNA: UGCAUCUGCAUUUUACCAGUGAGUCGGAUCUCCGCAUAGAUAAGCCAACAAACGUACAUUCUCUGUUAGUAUUUUCUGCG |  |  |  | Kd [4]: 0.765 nM; Kd [5]: 0.778 nM
AMSB107.17 (ssRNA, 2'-F all nucleotides) RNA: GCUGUACAGCUUUUACCAGUGAGUCGGAUCUCCGCAUAGAUAAGCCAACAAACGUACAUUCUCUGUUAGUAUUUUCUGCG |  |  |  | Kd [4]: 0.198 nM; Kd [5]: 0.086 nM

Binder | IC50 [1] [nM] | Kd [2] [nM] | Kd [3] [nM] | other results
AMS0433.11 (ssRNA, 2'-F all nucleotides) RNA: CACAGAGAACUGUGCCUAGCAUUUUGCCAGUGAGUCGGAUCUCCGCAUAUCUGCG |  | 23.2 | 16.4 | 
AMS0433.11 (ssRNA, 2'-F all) RNA: CACAGAGAACUGUGCCUAGCAUUUUGCCAGUGAGUCGGAUCUCCGCAUAUCUGCG | 29.5 |  |  | 
AMS0433.13 (ssRNA, 2'-F all nucleotides) RNA: UUUUGUGCUUGCGUAGCAACCCUCCAGUGAGUCGGAUCUCCGCAUAUCUGCG |  | 9.47 | 8.3 | 
AMS0433.13 (ssRNA, 2'-F all) RNA: UUUUGUGCUUGCGUAGCAACCCUCCAGUGAGUCGGAUCUCCGCAUAUCUGCG | 12.3 |  |  | 
AMSB107.12 (ssRNA, 2'-F all nucleotides) RNA: CUGUACAGUUUUACCAGUGAGUCGGAUCUCCGCAUAGAUAAGCCAACAAACGUACAUUCUCUGUUAGUAUUUUCUGCG |  |  |  | Kd [4]: 0.606 nM; Kd [5]: 0.227 nM
AMSB107.18 (ssRNA, 2'-F; LNA at selected positions of the VEGF consensus as printed) RNA: UGCAUGCAUUUUACCAGUGAGUCGGAUCUCCGCAUAGAUAAGCCAACAAACGUACAUUCUCUGUUAGUAUUUUCUGCG |  |  |  | Kd [4]: 0.608 nM; Kd [5]: 0.079 nM
AMSB107.20 (ssRNA, 2'-F; LNA in stem nucleotides as printed) RNA: UGCAUGCAUUUUACCAGUGAGUCGGAUCUCCGCAUAGAUAAGCCAACAAACGUACAUUCUCUGUUAGUAUUUUCUGCG |  |  |  | Kd [4]: 0.234 nM; Kd [5]: 0.253 nM
AMSB107.21 (ssRNA, 2'-F; 2'-OMe in stem nucleotides (5' UGCAUGCA, internal CGCA, 3' UGCG)) RNA: UGCAUGCAUUUUACCAGUGAGUCGGAUCUCCGCAUAGAUAAGCCAACAAACGUACAUUCUCUGUUAGUAUUUUCUGCG |  |  |  | Kd [4]: 0.052 nM; Kd [5]: 0.083 nM
UUUUGCAUGCAUUUUACCAGUGAGUCGGAUCUCCGCAUAUCUGCG (ssRNA, 2'-F all nucleotides) |  | 0.045 | 0.039 | 
UUUUGCAUGCAUUUUACCAGUGAGUCGGAUCUCCGCAUAUCUGCG (ssRNA, 2'-F all) | 0.044 |  |  | 
AMSB107.14 (ssRNA, 2'-F all nucleotides) RNA: UGCACUGCAUUUUACCAGUGAGUCGGAUCUCCGCAUAGAUAAGCCAACAAACGUACAUUCUCUGUUAGUAUUUUCUGCG |  |  |  | Kd [4]: 0.643 nM; Kd [5]: 0.928 nM
CUGUACAGUUUUACCAGUGAGUCGGAUCUCCGCAUAUCUGCG (ssRNA, 2'-F all nucleotides) |  | 0.162 | 0.097 | 
CUGUACAGUUUUACCAGUGAGUCGGAUCUCCGCAUAUCUGCG (ssRNA, 2'-F all) | 0.056 |  |  | 
UGCACUGCAUUUUACCAGUGAGUCGGAUCUCCGCAUAUCUGCG (ssRNA, 2'-F all nucleotides) |  | 0.475 | 0.359 | 
UGCACUGCAUUUUACCAGUGAGUCGGAUCUCCGCAUAUCUGCG (ssRNA, 2'-F all) | 0.983 |  |  | 
UUUUACCAGUGAGUCGGAUCUCUGCAUGCA (ssRNA, 2'-F all) | 1.2 |  |  | 
ACCCUUGCUUGCGUAGCAUUUUACCAGUGAGUCGGAUCUCUGCAUGCA (ssRNA, 2'-F all nucleotides) |  | 9 | 7.34 | 
ACCCUUGCUUGCGUAGCAUUUUACCAGUGAGUCGGAUCUCUGCAUGCA (ssRNA, 2'-F all) | 2.17 |  |  | 
CGUAGCAUUUUGCCAGUGAGUCGGAUCUCCGCAUAUCUGCG (ssRNA, 2'-F all nucleotides) [AMS0433.8] |  | 11 | 8.2 | 
UUUUACCAGUGAGUCGGAUCUCUGCAUGCA (ssRNA, 2'-F all nucleotides) |  | 10.4 | 6.65 | 
